According to publication PMC10936676, “ATG9B is a tissue-specific homotrimeric lipid scramblase that can compensate for ATG9A” (Autophagy, 2023):

Target: the molecule itself
Test: cryo-EM structure; single-particle cryo-EM of purified ATG9B in LMNG-CHS micelles; 20 mM Tris-HCl, 200 mM NaCl, pH 8.5; reconstructions with C3 and without symmetry

B1: 3×FLAG-6×His-TEV-ATG9B (full-length human ATG9B), purified from Expi293 cells (natural protein, UniProt Q674R7-1 1-924, looked up)
chain: MVSRMGWGGRRRRLGRWGDLGPGSVPLLPMPLPPPPPPSCRGPGGGRISIFSLSPAPHTRSSPSSFSPPTAGPPCSVLQGTGASQSCHSALPIPATPPTQAQPAMTPASASPSWGSHSTPPLAPATPTPSQQCPQDSPGLRVGPLIPEQDYERLEDCDPEGSQDSPIHGEEQQPLLHVPEGLRGSWHHIQNLDSFFTKIYSYHQRNGFACILLEDVFQLGQFIFIVTFTTFLLRCVDYNVLFANQPSNHTRPGPFHSKVTLSDAILPSAQCAERIRSSPLLVLLLVLAAGFWLVQLLRSVCNLFSYWDIQVFYREALHIPPEELSSVPWAEVQSRLLALQRSGGLCVQPRPLTELDIHHRILRYTNYQVALANKGLLPARCPLPWGGSAAFLSRGLALNVDLLLFRGPFSLFRGGWELPHAYKRSDQRGALAARWGRTVLLLAALNLALSPLVLAWQVLHVFYSHVELLRREPGALGARGWSRLARLQLRHFNELPHELRARLARAYRPAAAFLRTAAPPAPLRTLLARQLVFFAGALFAALLVLTVYDEDVLAVEHVLTAMTALGVTATVARSFIPEEQCQGRAPQLLLQTALAHMHYLPEEPGPGGRDRAYRQMAQLLQYRAVSLLEELLSPLLTPLFLLFWFRPRALEIIDFFHHFTVDVAGVGDICSFALMDVKRHGHPQWLSAGQTEASLSQRAEDGKTELSLMRFSLAHPLWRPPGHSSKFLGHLWGRVQQDAAAWGATSARGPSTPGVLSNCTSPLPEAFLANLFVHPLLPPRDLSPTAPCPAAATASLLASISRIAQDPSSVSPGGTGGQKLAQLPELASAEMSLHVIYLHQLHQQQQQQEPWGEAAASILSRPCSSPSQPPSPDEEKPSWSSDGSSPASSPRQQWGTQKARNLFPGGFQVTTDTQKEPDRASCTD
notes: ATG9B, human, canonical isoform 1 (Q674R7-1), full length; residues 191-674 visible in the cryo-EM map; A TEV site lies between the 6×His tag and ATG9B; no cleavage is described; Eluted from the anti-FLAG resin with 3×FLAG peptide; In LMNG-CHS micelles; also called ATG9B homotrimer; pcDNA3.1-3×FLAG-6×His-TEV-ATG9B; source: Expi293, transiently transfected, extracted into detergent micelles, …
stoichiometry N: 3
